Publication PMC11555092

Target: HIV-1 CA hexamer (CA A14C/E45C/W184A/M185A mutant) (HIV-1)
Assay: SEC; Superdex 10/300 GL increase column in 50 mM Tris pH 8; elution at 12.5 mL

HIV-1 CA hexamer (CA A14C/E45C/W184A/M185A mutant) (complex)
stoichiometry N: 6
